Values quoted from earlier work in publication PMC3781210.
Where two headings read alike, the source gives them in different places.

Tests used:
Beclin 1 (Homo sapiens) [1] = biological target: Beclin 1 (Homo sapiens) (UniProt Q14457)
Beclin 1 (Homo sapiens) [2] = biological target: Beclin 1 (Homo sapiens) (UniProt Q14457); remark: listed apart in the source
Beclin 1 (Homo sapiens) [3] = biological target: Beclin 1 (Homo sapiens) (UniProt Q14457); remark: listed apart in the source

UniProt Q14457, sequence (Q14457 150-450): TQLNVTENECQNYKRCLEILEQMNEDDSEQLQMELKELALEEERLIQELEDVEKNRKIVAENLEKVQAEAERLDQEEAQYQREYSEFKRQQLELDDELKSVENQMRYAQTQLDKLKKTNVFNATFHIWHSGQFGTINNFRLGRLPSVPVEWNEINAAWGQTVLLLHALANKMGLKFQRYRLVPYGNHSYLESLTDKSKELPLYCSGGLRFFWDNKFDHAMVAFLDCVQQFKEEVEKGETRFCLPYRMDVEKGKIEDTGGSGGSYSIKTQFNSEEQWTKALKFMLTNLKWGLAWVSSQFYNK

## Bcl-2 (from UniProt P10415)
Beclin 1 (Homo sapiens) [1]
  Kd: 1700 nM

## Bcl-XL (from UniProt Q07817)
Beclin 1 (Homo sapiens) [2]
  Kd: 1700 nM

## vBcl-2 (from UniProt P89884)
Beclin 1 (Homo sapiens) [3]
  Kd: 40 nM
